The target in assay [1] is T1, synthetic peptide corresponding to bovine kappa-CN (bovine).
T1 construct: Synthetic substrate peptide, free N- and C-terminus as printed; also called Bt kappa-CN; bovine kappa-CN peptide
T1 peptide: HPHPHLS[Phe(4-NO2)]MAI
As to the kind of experiment: cleavage kinetics of the synthetic peptide at pH 5.6, Lineweaver-Burke plots; binding inferred from KM. On the procedure: (§1) Two synthetic peptidases, which correspond to the chymosin sensitive regions of camel- and bovine κ-casein (CN), were proteolytically cleaved with bovine and camel chymosin, respectively. KM and kcat were determined at pH 5.6. Additionally, temperature and pH optima of these reactions were measured. The two following synthetic peptides were used in this study:
(§2) The measurement of samples was repeated 3 to 6 times, the Michaelis-Menten and the turnover values were determined from Lineweaver-Burke plots with weighted linear regression of data.

Assay [2] has as its target T2, synthetic peptide corresponding to camel kappa-CN (camel).
T2 construct: Synthetic substrate peptide, free N- and C-terminus as printed; also called Cd kappa-CN; Cd kappa-CN peptide
T2 peptide: RPRPRPS[Phe(4-NO2)]IAI
The assay is described as above. The method, then: as §1, §2

Square brackets hold non-standard residues; d marks the D form. Ends that are not written are not given here. Phe(4-NO2) = N[C@@H](Cc1ccc([N+](=O)[O-])cc1)C(=O)O

B1: recombinant Camelus dromedarius chymosin (enzyme, UniProt Q9GK11 59-381, looked up)
chain: GKVAREPLTSYLDSQYFGKIYIGTPPQEFTVVFDTGSSDLWVPSIYCKSNVCKNHHRFDPRKSSTFRNLGKPLSIHYGTGSMEGFLGYDTVTVSNIVDPNQTVGLSTEQPGEVFTYSEFDGILGLAYPSLASEYSVPVFDNMMDRHLVARDLFSVYMDRNGQGSMLTLGAIDPSYYTGSLHWVPVTLQQYWQFTVDSVTINGVAVACVGGCQAILDTGTSVLFGPSSDILKIQMAIGATENRYGEFDVNCGNLRSMPTVVFEINGRDYPLSPSAYTSKDQGFCTSGFQGDNNSELWILGDVFIREYYSVFDRANNRVGLAKAI
notes: mature; also called Cd chymosin; camel chymosin
Consider B1, for which the “substrate binding relative to bovine chymosin” value in assay [1] and in assay [2] was roughly 2 fold each time.

These data come from patent publication US20020164696A1 (CHR HANSEN A S, published 2002).
